Biological target: Glutathione S-transferase (GST) (Schistosoma japonicum, UniProt P08515 P08515:2-218)
Assay: SPR; Kd fitted with BIA Evolution 3.1 but value only in figure; RNA immobilized via poly(A)/poly(dT)
Conditions: chain copies: 2 inferred
Description: Synthetic biotinylated polydT (Hokkaido System Science) is allowed to bind to the surface of an SA BIACORE chip (Biacore). The single-stranded RNA molecules (RNA adaptor molecules) comprising polyA (Aₙ) added on the 5′-terminal side are annealed with the synthetic biotinylated polydT immobilized on the chip surface. As a result, the single-stranded RNA molecules (RNA adaptor molecules) are immobilized thereon via the hybrid bonding between the polydT and the polyA (Aₙ).
This chip on which the single-stranded RNA molecules (RNA adaptor molecules) are immobilized is utilized to measure the process of formation of complexes of the single-stranded RNA molecules (RNA adaptor molecules) and GST proteins and the process of dissociation thereof by use of a surface plasmon resonance detection apparatus. The results are analyzed to determine the equilibrium dissociation constants of the complexes.
Parameter fitting is conducted by use of BIA Evolution ver. 3.1 for the concentrations of the GST protein in the poured GST protein solutions and the time-dependent changes in signal intensity measured in this process, to thereby determine equilibrium dissociation constant KD.

Sequence of Glutathione S-transferase (GST) (P08515 2-218, one chain of several): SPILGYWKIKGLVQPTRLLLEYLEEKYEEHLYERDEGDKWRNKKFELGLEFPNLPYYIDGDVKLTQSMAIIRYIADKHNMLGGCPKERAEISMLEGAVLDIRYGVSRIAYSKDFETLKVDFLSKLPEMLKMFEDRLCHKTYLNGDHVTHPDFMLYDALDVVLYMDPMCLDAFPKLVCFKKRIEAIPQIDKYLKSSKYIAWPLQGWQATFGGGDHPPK

Binder | binding result
No. 26 clone RNA aptamer with 5' poly(A) (ssRNA) RNA: GGUAGAUACGAUGGAUACCGAAAAAUUAGUGUCGUUGACUGCAACAUGACGCGCAGCCAA | binds
No. 3 clone RNA aptamer with 5' poly(A) (ssRNA) RNA: GGUAGAUACGAUGGAUGGUUGUGUAAAGGUGGUCGUAUCCGCCGACAUGACGCGCAGCCAA | binds
No. 5 clone RNA aptamer with 5' poly(A) (ssRNA) RNA: GGUAGAUACGAUGGACUAACUGCGCAAAUUACUCGUAUUAGCCGACAUGACGCGCAGCCAA | binds

From US20100036106, “High-Affinity RNA Aptamer Molecule Against Glutathione-S-Transferase Protein” (NEC Soft, Ltd., published 2010)
